Drawing on patent publication US20100062001A1 (TECHNION RESEARCH AND DEVELOPMENT, published 2010), this text covers Kd for one molecule.

The target in this experiment is HLA-A2-G9-209 complex (as used for the affinity of 9H) (human, UniProt P61769 21-119; P40967 209-217). In words: method not stated (data not shown).

B1: 9H scFv antibody (scFv)
scFv: EVQLLESGGGLVQPGGSLRLSCAASGFTFQYYAMSWVRQAPGKGLEWVSSINWNSGTLDYADSVKGRFTISRDNSKNTLYLQMNSLRAEDTAVYYCARYSNYGLYAMDVWGQGTLVTVSSSGGGGSGGGGSGGGGSSDIVLTQPPSASGTPGQRVTISCSGSSSNIGSNPVTWYQQLPGTAPKPLIYGDSYRPSGVPDRFSGSKSGTSASLAISGLRSEDEADYYCATWDDDVNGVIFGGGTQLTVLR
notes: also called scFv 9H; clone 9H
Take B1: the equilibrium dissociation constant (Kd) (commonly the free concentration of one partner at which half of the binding sites on the other are occupied at equilibrium, for simple one-to-one binding) turned out to be 0.5 nM.
